From patent publication US20210395392A1 (Bristol-Myers Squibb, published 2021)

T1: Recombinant soluble extracellular domain of mouse MerTK (mouse, UniProt Q60805 19-497)
T1 construct: SPR analyte; also called mMerTK
T1 sequence: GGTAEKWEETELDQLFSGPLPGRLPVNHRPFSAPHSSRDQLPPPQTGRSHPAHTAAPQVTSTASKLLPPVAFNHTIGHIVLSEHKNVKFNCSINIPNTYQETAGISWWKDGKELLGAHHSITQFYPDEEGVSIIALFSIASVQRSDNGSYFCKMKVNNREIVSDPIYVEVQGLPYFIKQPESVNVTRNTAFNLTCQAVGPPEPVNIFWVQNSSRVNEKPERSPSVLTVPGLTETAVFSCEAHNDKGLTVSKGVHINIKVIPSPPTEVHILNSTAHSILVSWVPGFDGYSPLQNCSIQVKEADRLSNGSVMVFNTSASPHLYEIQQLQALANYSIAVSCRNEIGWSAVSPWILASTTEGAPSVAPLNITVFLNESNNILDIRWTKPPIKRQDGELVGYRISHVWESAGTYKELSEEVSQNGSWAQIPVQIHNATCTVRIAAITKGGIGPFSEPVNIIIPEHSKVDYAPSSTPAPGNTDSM

T2: Mouse MerTK on mMerTK-expressing cells (mouse, UniProt Q60805 19-994)
T2 sequence: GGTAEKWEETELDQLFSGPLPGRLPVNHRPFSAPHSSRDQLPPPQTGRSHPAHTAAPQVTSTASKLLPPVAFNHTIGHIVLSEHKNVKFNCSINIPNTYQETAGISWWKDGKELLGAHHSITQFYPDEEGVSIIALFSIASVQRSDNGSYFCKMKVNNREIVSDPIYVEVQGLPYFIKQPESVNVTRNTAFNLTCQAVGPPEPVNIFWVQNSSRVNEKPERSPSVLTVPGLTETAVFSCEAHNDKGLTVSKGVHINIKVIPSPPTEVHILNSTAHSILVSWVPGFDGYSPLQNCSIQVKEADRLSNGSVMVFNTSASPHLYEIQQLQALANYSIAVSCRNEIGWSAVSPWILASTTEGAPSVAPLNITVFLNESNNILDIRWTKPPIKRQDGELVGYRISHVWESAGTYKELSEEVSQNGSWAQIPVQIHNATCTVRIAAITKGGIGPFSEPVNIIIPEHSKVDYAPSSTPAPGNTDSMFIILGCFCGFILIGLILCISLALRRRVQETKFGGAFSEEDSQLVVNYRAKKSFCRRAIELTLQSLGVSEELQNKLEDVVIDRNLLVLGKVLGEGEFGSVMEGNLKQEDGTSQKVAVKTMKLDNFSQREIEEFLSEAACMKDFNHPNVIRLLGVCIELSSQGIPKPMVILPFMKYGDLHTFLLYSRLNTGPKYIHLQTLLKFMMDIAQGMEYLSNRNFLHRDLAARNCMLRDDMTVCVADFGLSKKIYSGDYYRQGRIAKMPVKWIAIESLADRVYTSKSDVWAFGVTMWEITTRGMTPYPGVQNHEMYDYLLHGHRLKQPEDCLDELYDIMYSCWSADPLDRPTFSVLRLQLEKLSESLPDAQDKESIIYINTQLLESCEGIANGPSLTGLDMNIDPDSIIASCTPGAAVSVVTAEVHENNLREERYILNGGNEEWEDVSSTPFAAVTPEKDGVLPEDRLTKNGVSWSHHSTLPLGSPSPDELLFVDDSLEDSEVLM

T3: Human MerTK on hMerTK-expressing cells (human, UniProt Q12866 21-999)
T3 sequence: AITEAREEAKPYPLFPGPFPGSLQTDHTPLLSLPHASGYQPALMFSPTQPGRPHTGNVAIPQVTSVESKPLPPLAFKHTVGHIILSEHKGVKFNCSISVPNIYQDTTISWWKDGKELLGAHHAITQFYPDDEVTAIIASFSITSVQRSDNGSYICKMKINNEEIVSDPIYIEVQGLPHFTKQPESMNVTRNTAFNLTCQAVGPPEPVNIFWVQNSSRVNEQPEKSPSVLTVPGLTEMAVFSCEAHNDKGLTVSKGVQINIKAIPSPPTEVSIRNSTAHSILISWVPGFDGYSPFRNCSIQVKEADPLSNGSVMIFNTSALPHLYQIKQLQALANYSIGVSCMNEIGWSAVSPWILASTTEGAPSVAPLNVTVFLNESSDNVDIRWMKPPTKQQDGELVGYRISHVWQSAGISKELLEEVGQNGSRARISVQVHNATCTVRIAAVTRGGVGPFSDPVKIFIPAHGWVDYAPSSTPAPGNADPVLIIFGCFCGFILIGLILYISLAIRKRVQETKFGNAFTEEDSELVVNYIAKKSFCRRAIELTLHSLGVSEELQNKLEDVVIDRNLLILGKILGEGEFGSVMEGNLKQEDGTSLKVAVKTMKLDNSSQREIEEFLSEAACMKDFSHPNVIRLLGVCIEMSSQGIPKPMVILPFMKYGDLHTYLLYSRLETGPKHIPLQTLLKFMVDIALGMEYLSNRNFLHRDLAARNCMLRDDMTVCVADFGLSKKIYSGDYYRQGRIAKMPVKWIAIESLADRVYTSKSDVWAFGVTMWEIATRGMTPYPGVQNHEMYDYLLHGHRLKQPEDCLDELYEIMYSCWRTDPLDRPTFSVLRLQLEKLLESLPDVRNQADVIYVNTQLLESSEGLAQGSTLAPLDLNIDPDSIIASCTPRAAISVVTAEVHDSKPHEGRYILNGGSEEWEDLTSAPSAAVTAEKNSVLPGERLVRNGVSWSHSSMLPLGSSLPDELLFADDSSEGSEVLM


Assays:
[1] = target: T1, Recombinant soluble extracellular …; experiment: summary sentence of the description; assay not named
[2] = target: T2, Mouse MerTK on mMerTK-expressing cells; experiment: cell-based or functional assay
[3] = target: T3, Human MerTK on hMerTK-expressing cells; experiment: cell-based or functional assay

Binder	binding result [1]	Signaling Assay, mMerTK with Gas6, pSTAT1 IC50 (nM) [2]	Inhibition of Efferocytosis IC50 [3]	Signaling Assay, hMerTK with Gas6, pSTAT1 IC50 (nM) [3]	Signaling Assay, hMerTK without Gas6, pSTAT1 IC50 (nM) [3]
HuMAb 1B4 (antibody, human IgG1, kappa, V domains shown, Human anti-hMerTK mAb, Bin 1) VH: QLQLQESGPGLVKPSETLSLTCAVSGYSISSGNYWGWIRQSPGKGLEWIGSVDHSGSTYYSPSLKSRVTISVDTSKNQFSLKLNSVTAADTADYYCARNTMIRGVMDWFDPWGQGTLVTVSS VL: AIQLTQSPSSLSASVGDRVTITCRASQGISSALAWYQQKPGKAPKVLIYDASSLESGVPSRFSGSGSGTDFTLTISSLQPEDFATYYCQQFRSYPTFGQGTKVEIKR	no binding	> 100 nM	72 pM	0.33 nM	> 100 nM
HuMAb 22I16 (antibody, human IgG1, kappa, V domains shown, Human anti-hMerTK mAb, Bin 1; also called 22116) VH: EVQLVESGGGLVQPGGSLRLSCAASGFTFSSYSMNWVRQAPGKGLEWVSYIISGSDTIFYADSVKGRFTISRDNAKNSLYLQMNSLRDEDTAVYYCARDETVVRGVINYFDYWGQGTLVTVSS VL: AIQLTQSPSSLSASVGDRVTITCRSSQGISSALAWYQQKPGKAPKLLIYDASSLESGVPSRFSGSGSGTDFTLTISSLQPEDFATYYCQQFISYPTFGQGTRLEIKR	no binding	–	352 pM	3.41 nM	> 100 nM
HuMAb 25J60 (antibody, human IgG1, kappa, V domains shown, Human anti-hMerTK mAb, Bin 2, derived from HuMAb 25B10 by optimization) VH: QVQLVQSGAEVKKPGASVKVSCKTSGNTQIRYYMYWVRQAPGQGLEWMGILNPNQDQTTYAQKFQGRVTMTRDTSTSTVYMELSSLRSEDTAVYYCATTYRYYMDVWGQGTTVTVSS VL: not shown	no binding	–	51 pM	0.093 nM	> 100 nM
HuMAb 25J80 (antibody, human IgG1, kappa, V domains shown, Human anti-hMerTK mAb, Bin 2, derived from HuMAb 25B10 by optimization) VH: QVQLVQSGAEVKKPGASVKVSCKTSGRTFIRYYMHWVRQAPGQGLEWMGIIWPNGDQTTYAQKFQGRVTMTRDTSTSTVYMELSSLRSEDTAVYYCATTYKYAMDVWGQGTTVTVSS VL: EIVLTQSPGTLSLSPGERATLSCRASQSVRSNYLAWYQQKPGQAPRLLIYGASSRATGIPDRFSGSGSGTDFTLTISRLEPEDFAVYYCQQYESPPRTFGQGTKVEIKR	no binding	–	93 pM	0.227 nM	> 100 nM
HuMAb 8N42 (antibody, V domains shown, Human anti-hMerTK mAb, Bin 1) VH: QVQLQQWGAGLLKPSETLSLTCAVYGGSFSIYYWSWIRQPPGKGLELIGEINDEGNTNYNPSLKSRVTISVDTSKNQFSLKLSSVTAADTAVYYCARGGTGDIHAFDIWGQGTMVTVSS VL: DIQMTQSPSSLSASVGDRVTITCRASQGISKWLAWYQQKPEKAPKSLIYAASSLQSGVPSRFSGSGSGTDFTLTISSLQPEDFATYYCQQYNSYPWTFGQGTKVEIKR	no binding	–	47 pM	0.572 nM	> 100 nM
HuMAb 4K10 (antibody, human IgG1, kappa, V domains shown, Human anti-hMerTK mAb, Bin 3) VH: QVQLQQWGAGLLKPSETLSLTCAVYGGSFSGYYWSWLRQPPGKGLEWIGEISHSGSTNYNPSLKSRVTISVDTSKNQFSLKLSSVTAADTAVYYCARALSRYWYFDLWGRGTLVTVSS VL: EIVLTQSPATLSLSPGERATLSCRASQSASNYLAWYQQKPGQAPRLLIYDASNRATGIPARFSGSGSGTDFTLTISSLEPEDFAVYYCYQRSQWPISFGQGTRLEIKR	no binding	–	> 10000 pM	5.42 nM	–
